Test results taken from paper PMC6509496, “Crystal structure of the TreS:Pep2 complex, initiating α-glucan synthesis in the GlgE pathway of mycobacteria” (The Journal of Biological Chemistry, 2019).

Test system: T1, Nc1ncnc2c1ncn2[C@@H]1O[C@H](COP(=O)(O)OP(=O)(O)OP(=O)(O)O)[C@@H](O)[C@H]1O
T1 construct: full length (441 residues), N-terminal His6 tag (pET28a), E. coli BL21(DE3); monomer
Experiment: coupled pyruvate kinase / lactate dehydrogenase assay, NADH depletion
Type: biochemical, Mycolicibacterium smegmatis
Conditions: 20 mM maltose, 10 mM MgCl2, 50 mM sodium phosphate pH 7.5, 300 mM NaCl, 10% glycerol, no TreS
From the text: coupled pyruvate kinase / lactate dehydrogenase assay, NADH depletion on Msm Pep2 (M. smegmatis maltokinase, MsPep2)

Substance “Msm Pep2 (M. smegmatis maltokinase, MsPep2) (Mycolicibacterium smegmatis MC2 155)” has a Km of 76 ± 7 µM.
